Consider one molecule from patent publication US20020034726A1, “Eosinophil chemotactic factor” (priority 1998, published 2002).

Format in all cases: cell-based
In one experiment the test system is human eosinophils. As to the kind of experiment: eosinophil chemotaxis (ECA) test, bilayered 48-well chamber. The procedure:
(§1) The eosinophil chemotaxis was measured by following the method described in the reference (Lymphokine Cytokine Res. 10, 481-486, 1991; Lymphokine Cytokine Res. 11, 331-338, 1992). Specifically, eosinophils of CD16- were purified from the peripheral blood of normal volunteers by discontinuous density-gradient method using Percoll (Pharmacia, Picataway, N.J.), and the following anti-CD16 immunoglobulin (DAKO. A. S, Glostrup, Denmark) magnetic antibody treatment. Purity of the obtained eosinophils was 97% or higher, and living cells were 95%. Chemotaxis was measured using a bilayered 48-well plate (NeuroProbe, Cabin John, Md.) mediated through a polyvinylpyrrolidone-free membrane (a standard pore size of 5 micron). Chemotactic factors in various concentration, and 0.5×10^6 to 1×10^6 cells/ml human eosinophils were placed on the lower and upper layers, respectively, and incubated under 5% carbon dioxide at 37° C. for 1 to 2 hours. Then the membrane separating two plates was removed, and eosinophils were stained by placing them in DiffQuick stain (Baxter Health Care, McGaw Park, Ill.) to count the eosinophils which were passing through the membrane under a microscope. All assays were conducted three times.
As a positive control, human C5a (Sigma, Saint Louis, Mo.), IL-5 (Genzyme, Cambridge, Mass.), RANTES (Genzyme), and eotaxin-1 (Seikagaku-Kogyo, Tokyo) were used. […]

The subject of the next experiment is neutrophils. As to the kind of experiment: neutrophil chemotaxis test. Conditions: PBS negative control, IL-8 positive control; FIG. 6.
The next experiment relates to lymphocytes. The experiment in a line: lymphocyte chemotaxis test. As to conditions: membrane pore size 3 μm; PBS negative control, lymphotactin positive control; FIG. 7. Here is the method:
as §1
(§2) The similar experiments were conducted in regard to lymphocytes (FIG. 7) and monocytes (FIG. 8). Pore sizes of the membranes are 3 and 8 μm, respectively. […]

The test system of another experiment is monocytes. The experiment in a line: monocyte chemotaxis test. As to conditions: membrane pore size 8 μm, PBS negative control, MCP-1 positive control, FIG. 8. The procedure: as §1, §2

“Also recorded” adds a separate entry of the source.

B1: ecalectin: eosinophil-specific chemotactic factor, 323 amino acid protein of SEQ ID NO: 2, similar to galectin-9; recombinant from Sf9 insect cells (protein, listed as Homo sapiens)
chain: MAFSSSQAPYLSPAVPFSGTIQGGLQDGLQITVNGTVLSSSGTRFAVNFQTGFSGNDIAFHFNPRFEDGGYVVCNTRQNGSWGPEERKTHMPFQKGMPFDLCFLVQSSDFKVMVNGILFVQYFHRVPFHRVDTISVNGSVQLSYISFQPPGVWPANPAPITQTVIHTVQSAPGQMFSTPAIPPMMYPHPAYPMPFITTILGGLYPSKSILLSGTVLPSAQRFHINLCSGNHIAFHLNPRFDENAVVRNTQIDNSWGSEERSLPRKMPFVRGQSFSVWILCEAHCLKVAVDGQHLFEYYHRLRNLPTINRLEVGGDIQLTHVQT
Consider B1, for which the “specificity of chemotactic activity” value with human eosinophils (eosinophils versus neutrophils, lymphocytes, monocytes, FIGS. 5-8) was “specific to eosinophils”. The eosinophil chemotactic activity entry in the experiment on human eosinophils (recombinant ecalectin purified from Sf9 insect cells, stained eosinophils passing through 5 micron membrane, FIG. 5) is on record as “strong eosinophil chemotactic activity concentration-dependently; also recorded: concentration-dependent eosinophil chemotactic activity”. The neutrophil chemotactic activity result in the experiment with neutrophils is “no or little neutrophil chemotactic activity; also recorded: low or absent; also recorded: does not cause neutrophil chemotaxis”. Besides, in the experiment on lymphocytes, the lymphocyte chemotactic activity entry is listed as “no chemotactic activity; also recorded: low or absent; also recorded: does not cause lymphocyte chemotaxis”. Also, the figures for the monocyte chemotactic activity result in the experiment with monocytes and in the experiment with monocytes (listed as recombinant ecalectin) were “no chemotactic activity; also recorded: low or absent” and “does not cause monocyte chemotaxis”, respectively.
